Reference: article PMC3315493

Experiments:
[1] = molecular target: tetherin Y6,8A (stably expressed in 293T/tetherin Y6,8A cells) (UniProt Q10589); assay: co-immunoprecipitation (anti-tetherin IP, Western blot, LiCor quantitative imager); conditions: MOI of 2, 48 h post infection
[2] = molecular target: Vpu of wildtype HIV-1 NL4.3 (expressed from the virus); assay: as above; conditions: 293T/tetherin Y6,8A cells, MOI of 2, 48 h post infection, read off a plot

Substance: Vpu of wildtype HIV-1 NL4.3 (expressed from the virus) E59A; L63A; V64A
- response (ratio Vpu/tetherin band intensity in IP) ([1]; UBAP1 siRNA, parent: est. 1.3, read off a plot): 0.9
- response (ratio Vpu/tetherin band intensity in IP) ([1]; control siRNA, parent: est. 1.6, read off a plot): 0.5

Substance: human tetherin (stably expressed in 293T/tetherin cells) (from UniProt Q10589) Y6A; Y8A
- response (ratio Vpu/tetherin band intensity in IP) ([2]; UBAP1 siRNA): 1.3
- response (ratio Vpu/tetherin band intensity in IP) ([2]; control siRNA): 1.6
